Target: human SIRPα-isoform 2-his protein (human)
Test: indirect ELISA on coated human SIRPα-isoform 2-his, OD(450-630); negative control, curve not visible in the scan

Sequence of human SIRPα-isoform 2-his protein (human) (chain, as listed by the source limits assumed): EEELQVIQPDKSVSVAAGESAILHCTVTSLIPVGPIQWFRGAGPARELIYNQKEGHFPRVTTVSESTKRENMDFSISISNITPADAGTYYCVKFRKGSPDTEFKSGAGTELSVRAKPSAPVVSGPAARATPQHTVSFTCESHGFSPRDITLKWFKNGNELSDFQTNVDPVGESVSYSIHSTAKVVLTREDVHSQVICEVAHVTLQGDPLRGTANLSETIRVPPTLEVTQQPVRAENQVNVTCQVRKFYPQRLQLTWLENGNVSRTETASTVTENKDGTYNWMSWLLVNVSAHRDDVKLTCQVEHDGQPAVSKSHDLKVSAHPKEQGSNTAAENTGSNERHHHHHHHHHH

With hIgG (antibody) the EC50 was 18.8 nM.
